This is an account of results in article PMC4764565, “Synergistic integration of Netrin and ephrin axon guidance signals by spinal motor neurons” (eLife, 2015).

For this test, the target named is T1, EphB2-GFP (mouse, UniProt P54763 19-986).
T1 construct: ephrin receptor EphB2 (plasmid Ephb2-GFP, Kao et al., 2009); also called EphB2 fused to GFP; wild-type EphB2-GFP; source: HEK293 (ATCC CRL 1573), transfected (calcium phosphate), in lysate
T1 sequence (looked up): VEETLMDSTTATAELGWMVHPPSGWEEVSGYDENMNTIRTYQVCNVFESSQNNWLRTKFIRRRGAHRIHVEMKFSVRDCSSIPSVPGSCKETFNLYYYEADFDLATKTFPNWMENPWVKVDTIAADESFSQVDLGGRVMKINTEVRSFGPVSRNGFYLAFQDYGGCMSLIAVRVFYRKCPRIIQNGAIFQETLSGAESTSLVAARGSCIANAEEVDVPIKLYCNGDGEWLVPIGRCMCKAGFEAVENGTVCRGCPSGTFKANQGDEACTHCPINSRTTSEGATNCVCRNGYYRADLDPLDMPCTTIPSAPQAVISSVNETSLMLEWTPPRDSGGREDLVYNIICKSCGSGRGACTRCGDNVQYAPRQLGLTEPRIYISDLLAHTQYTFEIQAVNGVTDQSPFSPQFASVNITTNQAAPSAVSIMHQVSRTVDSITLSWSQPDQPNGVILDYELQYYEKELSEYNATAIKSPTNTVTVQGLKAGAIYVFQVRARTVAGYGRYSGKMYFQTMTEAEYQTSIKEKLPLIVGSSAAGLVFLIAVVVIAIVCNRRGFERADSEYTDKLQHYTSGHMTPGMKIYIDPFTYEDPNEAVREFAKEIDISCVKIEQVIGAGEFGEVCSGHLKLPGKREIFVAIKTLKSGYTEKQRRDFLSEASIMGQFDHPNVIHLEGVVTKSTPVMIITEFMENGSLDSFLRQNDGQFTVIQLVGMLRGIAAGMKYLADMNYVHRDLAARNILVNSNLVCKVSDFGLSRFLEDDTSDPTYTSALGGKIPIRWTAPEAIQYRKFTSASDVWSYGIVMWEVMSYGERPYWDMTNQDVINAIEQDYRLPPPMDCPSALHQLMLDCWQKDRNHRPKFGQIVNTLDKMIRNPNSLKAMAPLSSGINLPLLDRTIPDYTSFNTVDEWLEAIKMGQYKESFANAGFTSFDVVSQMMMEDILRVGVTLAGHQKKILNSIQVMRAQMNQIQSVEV
The test is described as follows: co-IP; anti-GFP antibody on ProteinA/G agarose, overnight, pre-cleared lysates of co-transfected HEK293 cells (10mM Tris-Cl pH 8, 137 mM NaCl, 2mM EDTA, 1% NP40); blot for Myc; in the ligand experiments cells were starved 2 hr in OPTIMEM and incubated 15 min at 37°C with pre-clustered Fc, eB2-Fc or eA3-Fc (1.5 μg/ml), Netrin-1 (250 ng/ml) or eB2-Fc+Netrin-1 before lysis. Particulars: partners not purified.

B1: Unc5c-Myc (receptor)
chain: not shown
notes: Netrin receptor Unc5c, mouse (plasmid mUnc5c-Myc, gift of Franck Polleux); also called mUnc5c-Myc; source: HEK293 (ATCC CRL 1573), transfected (calcium phosphate), in lysate
With B1, the “fold increase of the association after pre-incubation with eB2-Fc (against Fc)” value is around 22 fold.
